B1: CCL21WT (full-length human CCL21, residues 1–111) (ligand, UniProt O00585 24-134, looked up)
chain: SDGGAQDCCLKYSQRKIPAKVVRSYRKQEPSLGCSIPAILFLPRKRSQAELCADPKELWVQQLMQHLDKTPSPQKPAQGCRKDRGASKTGKKGKGSKGCKRTERSQTPKGP
B2: CCL21trunc (CCL21 residues 1–79) (domain or fragment, human, UniProt O00585 24-102, looked up)
chain: SDGGAQDCCLKYSQRKIPAKVVRSYRKQEPSLGCSIPAILFLPRKRSQAELCADPKELWVQQLMQHLDKTPSPQKPAQG

Experiments:
[1] = molecular target: T1, ACKR4 C-terminally fused to SmBiT (UniProt Q9NPB9)
T1 sequence: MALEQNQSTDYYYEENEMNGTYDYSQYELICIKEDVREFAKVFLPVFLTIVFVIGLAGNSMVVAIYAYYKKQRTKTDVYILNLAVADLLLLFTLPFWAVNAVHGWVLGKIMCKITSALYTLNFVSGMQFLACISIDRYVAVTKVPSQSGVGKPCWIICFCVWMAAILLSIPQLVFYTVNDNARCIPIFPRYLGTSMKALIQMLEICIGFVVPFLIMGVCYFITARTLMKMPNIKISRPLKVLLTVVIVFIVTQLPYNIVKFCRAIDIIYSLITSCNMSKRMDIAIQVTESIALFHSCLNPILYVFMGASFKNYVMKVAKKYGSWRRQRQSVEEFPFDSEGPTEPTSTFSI

[2] = molecular target: CCR7 C-terminally fused to SmBiT (human) (UniProt P32248)
[3] = molecular target: CCR7 C-terminally fused to SmBiT (human) (UniProt P32248); remark: listed apart in the source
[4] = molecular target: CCR7 C-terminally fused to SmBiT (human) (UniProt P32248); remark: listed apart in the source
[5] = molecular target: T2, CCR7 C-terminally fused to SmBiT (human, UniProt P32248 25-378); assay: cell-based or functional assay
T2 sequence (looked up): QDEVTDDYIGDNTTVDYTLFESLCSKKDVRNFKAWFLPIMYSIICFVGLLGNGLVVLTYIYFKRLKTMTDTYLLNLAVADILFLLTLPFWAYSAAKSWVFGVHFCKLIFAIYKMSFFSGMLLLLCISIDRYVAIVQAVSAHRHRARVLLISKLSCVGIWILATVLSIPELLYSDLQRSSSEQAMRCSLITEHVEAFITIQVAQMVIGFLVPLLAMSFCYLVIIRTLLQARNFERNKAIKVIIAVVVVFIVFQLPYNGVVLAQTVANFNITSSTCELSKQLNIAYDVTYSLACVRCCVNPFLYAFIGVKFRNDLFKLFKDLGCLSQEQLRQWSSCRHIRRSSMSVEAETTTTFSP

[6] = molecular target: T3, ACKR4 C-terminally fused to SmBiT (UniProt Q9NPB9 1-350); assay: cell-based or functional assay
T3 sequence (looked up): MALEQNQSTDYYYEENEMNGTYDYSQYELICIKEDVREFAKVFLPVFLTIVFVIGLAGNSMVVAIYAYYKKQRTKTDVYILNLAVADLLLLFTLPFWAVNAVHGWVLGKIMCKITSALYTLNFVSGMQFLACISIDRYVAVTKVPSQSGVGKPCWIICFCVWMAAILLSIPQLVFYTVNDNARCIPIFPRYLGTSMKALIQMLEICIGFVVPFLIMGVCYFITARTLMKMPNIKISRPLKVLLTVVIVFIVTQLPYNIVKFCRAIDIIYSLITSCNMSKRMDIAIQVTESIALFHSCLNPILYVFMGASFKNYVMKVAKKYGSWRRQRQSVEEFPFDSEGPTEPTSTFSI

[7] = molecular target: T4, CCL21WT (full-length human CCL21, residues 1–111) (human), O00585; assay: NMR titration; conditions: remark: other sources report otherwise
T4 chain: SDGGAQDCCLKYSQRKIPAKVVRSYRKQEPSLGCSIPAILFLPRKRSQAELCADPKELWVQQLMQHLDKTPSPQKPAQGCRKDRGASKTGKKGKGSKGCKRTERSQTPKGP

[8] = molecular target: T4, CCL21WT (full-length human CCL21, …); assay: NMR titration; conditions: remark: other sources report otherwise

Molecule	β-arrestin 1 recruitment to ACKR4, EC50 [1]	β-arrestin 1 recruitment to CCR7, EC50 [2]	calcium flux in CHEM-1 CCR7+ cells, EC50 [3]	calcium mobilization in CHEM-1 CCR7+ cells, EC50 [5]	β-arrestin 1 recruitment to CCR7 (panel with the truncation variants), EC50 [5]	β-arrestin 1 recruitment to ACKR4 (panel with the truncation variants), EC50 [6]	further results
CCL21 1–91 C80A (from UniProt O00585 24-114) (domain or fragment)	0.005 µM	0.06 µM	0.0073 µM				cAMP inhibition assay, dose–response from 10 pM to 100 nM, EC50 [2]: 7 nM
CCL21 1–101 (from UniProt O00585 24-124) (domain or fragment)	0.03 µM	0.1 µM	0.0215 µM				
CCL21 C80AC99A (from UniProt O00585 24-134) (ligand)							calcium mobilization in CHEM-1 CCR7+ cells, EC50 [4]: 0.0253 µM
B1				0.0334 µM	~0.1 µM	~0.03 µM	Kd [7]: 2000 to 10000 µM; Kd [8]: > 1000 µM
B2				0.00585 µM	~0.06 µM	~0.005 µM	

From paper PMC7307649 (Biochemistry, 2020)
